Results as given in patent publication US20240277805A1.

Biological target: T1, myostatin (UniProt O14793)
T1 sequence (looked up): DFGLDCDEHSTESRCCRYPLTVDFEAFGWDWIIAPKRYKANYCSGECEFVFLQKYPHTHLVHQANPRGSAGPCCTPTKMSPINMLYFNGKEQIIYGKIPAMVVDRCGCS
Assay: cell-based or functional assay

B1: STM 434 (svActRIIB-Fc (E28W, S44T) polypeptide without signal sequence) (Fc fusion)
chain: ETRWCIYYNANWELERTNQTGLERCEGEQDKRLHCYASWRNSSGTIELVKKGCWLDDFNCYDRQECVATEENPQVYFCCCEGNFCNERFTHLPEAGGPEVTYEPPPTAPTGGGGSVECPPCPAPPVAGPSVFLFPPKPKDTLMISRTPEVTCVVVDVSHEDPEVQFNWYVDGVEVHNAKTKPREEQFNSTFRVVSVLTVVHQDWLNGKEYKCKVSNKGLPAPIEKTISKTKGQPREPQVYTLPPSREEMTKNQVSLTCLVKGFYPSDIAVEWESNGQPENNYKTTPPMLDSDGSFFLYSKLTVDKSRWQQGNVFSCSVMHEALHNHYTQKSLSLSPGK
With B1 the Bioassay % relative potency; lot 0010036965, 5° C. upright, 0 months (% relative potency) was 100, the Bioassay % relative potency; lot 0010036965, 5° C. upright, 0.5 months (% relative potency) was 99 and the Bioassay % relative potency; lot 0010036965, 5° C. upright, 1 month (% relative potency) was 100. The Bioassay % relative potency; lot 0010036965, 5° C. upright, 3 months (% relative potency) was 104, the Bioassay % relative potency; lot 0010036965, 5° C. upright, 6 months (% relative potency) was 94 and the Bioassay % relative potency; lot 0010036965, 25° C. upright, 0 months (% relative potency) was 100. The Bioassay % relative potency; lot 0010036965, 25° C. upright, 0.25 months (% relative potency) was 97, the Bioassay % relative potency; lot 0010036965, -20° C. upright, 0 months (% relative potency) was 100 and the Bioassay % relative potency; lot 0010036965, -20° C. upright, 1 month (% relative potency) was 100. For the same binder, the Bioassay % relative potency; lot 0010036965, -20° C. upright, 3 months (% relative potency) was 102, the Bioassay % relative potency; lot 0010036965, -20° C. upright, 6 months (% relative potency) was 95 and the Bioassay % relative potency; lot 0010036965, -20° C. upright, 9 months (% relative potency) was 103. For the same binder, the Bioassay % relative potency; lot 0010036965, -20° C. upright, 12 months (% relative potency) was 102, the Bioassay % relative potency; lot 0010036965, -20° C. upright, 18 months (% relative potency) was 102 and the Bioassay % relative potency; lot 0010036965, -20° C. upright, 24 months (% relative potency) was 99. It also gave a Bioassay % relative potency; lot 0010036965, -20° C. upright, 30 months (% relative potency) of 102, a Bioassay % relative potency; lot 0010036965, -70° C. upright, 0 months (% relative potency) of 100 and a Bioassay % relative potency; lot 0010036965, -70° C. upright, 12 months (% relative potency) of 100. For the same binder, the Bioassay % relative potency; lot 0010036965, -70° C. upright, 24 months (% relative potency) was 100, the Bioassay % relative potency; lot 0010036965, T = 0 of the 5 × freeze/thaw study (% relative potency) was 100 and the Bioassay % relative potency; lot 0010036965, after 5 × F/T (% relative potency) was 100. For the same binder, the Bioassay % relative potency; lot EG-13-0150, 2-8° C. upright, 0 months (% relative potency) was 99, the Bioassay % relative potency; lot EG-13-0150, 2-8° C. upright, 1 month (% relative potency) was 93.2 and the Bioassay % relative potency; lot EG-13-0150, 2-8° C. upright, 3 months (% relative potency) was 99.7. The Bioassay % relative potency; lot EG-13-0150, 2-8° C. upright, 6 months (% relative potency) was 114, the Bioassay % relative potency; lot EG-13-0150, 2-8° C. upright, 9 months (% relative potency) was 103 and the Bioassay % relative potency; lot EG-13-0150, 2-8° C. upright, 12 months (% relative potency) was 106. It also gave a Bioassay % relative potency; lot EG-13-0150, 25° C. upright, 0 months (% relative potency) of 99, a Bioassay % relative potency; lot EG-13-0150, 25° C. upright, 1 month (% relative potency) of 86.9 and a Bioassay % relative potency; lot EG-13-0150, -20° C. upright, 0 months (% relative potency) of 99. It also gave a Bioassay % relative potency; lot EG-13-0150, -20° C. upright, 1 month (% relative potency) of 93.2, a Bioassay % relative potency; lot EG-13-0150, -20° C. upright, 3 months (% relative potency) of 94.4 and a Bioassay % relative potency; lot EG-13-0150, -20° C. upright, 6 months (% relative potency) of 110. It also gave a Bioassay % relative potency; lot EG-13-0150, -20° C. upright, 9 months (% relative potency) of 99.3, a Bioassay % relative potency; lot EG-13-0150, -20° C. upright, 12 months (% relative potency) of 105 and a Bioassay % relative potency; lot EG-13-0150, T = 0 of the 5 × freeze/thaw study (% relative potency) of 99. It also gave a Bioassay % relative potency; lot EG-13-0150, after 5 × F/T (% relative potency) of 96, a Bioassay % relative potency; lot FG-13-0230, 2-8° C. upright, 0 months (% relative potency) of 99 and a Bioassay % relative potency; lot FG-13-0230, 2-8° C. upright, 1 month (% relative potency) of 116. The Bioassay % relative potency; lot FG-13-0230, 2-8° C. upright, 3 months (% relative potency) was 108, the Bioassay % relative potency; lot FG-13-0230, 2-8° C. upright, 6 months (% relative potency) was 93 and the Bioassay % relative potency; lot FG-13-0230, 2-8° C. upright, 9 months (% relative potency) was 116. For the same binder, the Bioassay % relative potency; lot FG-13-0230, 2-8° C. upright, 12 months (% relative potency) was 121, the Bioassay % relative potency; lot FG-13-0230, 25° C. upright, 0 months (% relative potency) was 99 and the Bioassay % relative potency; lot FG-13-0230, 25° C. upright, 1 month (% relative potency) was 116. It also gave a Bioassay % relative potency; lot FG-13-0230, -20° C. upright, 0 months (% relative potency) of 99, a Bioassay % relative potency; lot FG-13-0230, -20° C. upright, 1 month (% relative potency) of 100 and a Bioassay % relative potency; lot FG-13-0230, -20° C. upright, 3 months (% relative potency) of 115. For the same binder, the Bioassay % relative potency; lot FG-13-0230, -20° C. upright, 6 months (% relative potency) was 96, the Bioassay % relative potency; lot FG-13-0230, -20° C. upright, 9 months (% relative potency) was 94 and the Bioassay % relative potency; lot FG-13-0230, -20° C. upright, 12 months (% relative potency) was 106. It also gave a Bioassay % relative potency; lot FG-13-0230, -70° C. upright, 0 months (% relative potency) of 99, a Bioassay % relative potency; lot FG-13-0230, -70° C. upright, 1 month (% relative potency) of 115 and a Bioassay % relative potency; lot FG-13-0230, -70° C. upright, 3 months (% relative potency) of 107. For the same binder, the Bioassay % relative potency; lot FG-14-0056, 2-8° C. upright, 0 months (% relative potency) was 99, the Bioassay % relative potency; lot FG-14-0056, 2-8° C. upright, 1 month (% relative potency) was 102 and the Bioassay % relative potency; lot FG-14-0056, 25° C. upright, 0 months (% relative potency) was 99. The Bioassay % relative potency; lot FG-14-0056, 25° C. upright, 1 month (% relative potency) was 122, the Bioassay % relative potency; lot FG-14-0056, -20° C. by the title (condition line prints 2-8° C.), 0 months (% relative potency) was 99 and the Bioassay % relative potency; lot FG-14-0056, -20° C. by the title (condition line prints 2-8° C.), 1 month (% relative potency) was 117. It also gave a Bioassay % relative potency; lot FG-14-0109, 2-8° C. inverted, 0 months (% relative potency) of 98, a Bioassay % relative potency; lot FG-14-0109, 2-8° C. inverted, 3 months (% relative potency) of 96 and a Bioassay % relative potency; lot FG-14-0109, 2-8° C. inverted, 6 months (% relative potency) of 112. For the same binder, the Bioassay % relative potency; lot FG-14-0109, 2-8° C. upright, 0 months (% relative potency) was 98, the Bioassay % relative potency; lot FG-14-0109, 2-8° C. upright, 3 months (% relative potency) was 92 and the Bioassay % relative potency; lot FG-14-0109, 2-8° C. upright, 6 months (% relative potency) was 107. The Bioassay % relative potency; lot FG-14-0109, 25° C. inverted, 0 months (% relative potency) was 98, the Bioassay % relative potency; lot FG-14-0109, 25° C. inverted, 3 months (% relative potency) was 94 and the Bioassay % relative potency; lot FG-14-0109, 25° C. inverted, 6 months (% relative potency) was 98. It also gave a Bioassay % relative potency; lot FG-14-0109, 25° C. upright, 0 months (% relative potency) of 98, a Bioassay % relative potency; lot FG-14-0109, 25° C. upright, 3 months (% relative potency) of 91 and a Bioassay % relative potency; lot FG-14-0109, 25° C. upright, 6 months (% relative potency) of 105. For the same binder, the Bioassay % relative potency; lot FG-14-0109, -20° C. upright, 0 months (% relative potency) was 98, the Bioassay % relative potency; lot FG-14-0109, -20° C. upright, 3 months (% relative potency) was 96 and the Bioassay % relative potency; lot FG-14-0109, -20° C. upright, 6 months (% relative potency) was 101. For the same binder, the Cell Based Bioassay, Relative Potency; DP lot 0010036965, 5° C., 54 months (% relative potency) was 87, the Cell Based Bioassay, Relative Potency; DP lot 0010036965, -20° C., 54 months (% relative potency) was 99 and the Cell Based Bioassay, Relative Potency; DP lot 0010036965, -70° C., 54 months (% relative potency) was 111. For the same binder, the Cell Based Bioassay, Relative Potency; DS lot 0010035106, 5° C., 54 months (% relative potency) was 101 and the Cell Based Bioassay, Relative Potency; DS lot 0010035106, -70° C., 54 months (% relative potency) was 99.
